In patent US20250368745A1 (published 2025):

Biological target: T1, human IL-18BP (human, UniProt O95998 31-194)
T1 construct: UniProt printed as 095998; also called hIL-18BP
T1 sequence: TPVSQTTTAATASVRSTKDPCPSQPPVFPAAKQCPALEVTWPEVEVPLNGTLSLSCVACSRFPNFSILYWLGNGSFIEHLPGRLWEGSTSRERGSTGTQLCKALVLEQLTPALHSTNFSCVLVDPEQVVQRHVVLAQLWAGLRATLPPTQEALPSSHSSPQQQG
Assay: BLI, apparent KD

Binder	Kd [nM]
SA302a HC-S31M (antibody, V domains shown) VH: QVQLQESGPGLVKPSQTLSLTCTVSGYSITMDYNAHWIRQPPGKGLEWIGYIHYSGSTNYNPSLKSRVTISRDTSKNQFSLKLSSVTAADTAVYYCARNYGSIYVNYFDYWGQGTLVTVSS VL: EIVLTQSPATLSLSPGERATLSCSASSSVSYMYWYQQKPGQAPRPLIYRTSNLASGIPARFSGSGSGTDFTLTISSLEPEDFAVYYCQQYHSYPTFGGGTKVEIK	0.61
SA302a HC-S31Q (antibody, V domains shown) VH: QVQLQESGPGLVKPSQTLSLTCTVSGYSITQDYNAHWIRQPPGKGLEWIGYIHYSGSTNYNPSLKSRVTISRDTSKNQFSLKLSSVTAADTAVYYCARNYGSIYVNYFDYWGQGTLVTVSS VL: EIVLTQSPATLSLSPGERATLSCSASSSVSYMYWYQQKPGQAPRPLIYRTSNLASGIPARFSGSGSGTDFTLTISSLEPEDFAVYYCQQYHSYPTFGGGTKVEIK	0.56
SA302a HC-D33N (antibody, V domains shown) VH: QVQLQESGPGLVKPSQTLSLTCTVSGYSITSNYNAHWIRQPPGKGLEWIGYIHYSGSTNYNPSLKSRVTISRDTSKNQFSLKLSSVTAADTAVYYCARNYGSIYVNYFDYWGQGTLVTVSS VL: EIVLTQSPATLSLSPGERATLSCSASSSVSYMYWYQQKPGQAPRPLIYRTSNLASGIPARFSGSGSGTDFTLTISSLEPEDFAVYYCQQYHSYPTFGGGTKVEIK	1.66
SA302a HC-D33I (antibody, V domains shown) VH: QVQLQESGPGLVKPSQTLSLTCTVSGYSITSIYNAHWIRQPPGKGLEWIGYIHYSGSTNYNPSLKSRVTISRDTSKNQFSLKLSSVTAADTAVYYCARNYGSIYVNYFDYWGQGTLVTVSS VL: EIVLTQSPATLSLSPGERATLSCSASSSVSYMYWYQQKPGQAPRPLIYRTSNLASGIPARFSGSGSGTDFTLTISSLEPEDFAVYYCQQYHSYPTFGGGTKVEIK	4.97
SA302a HC-D33H (antibody, V domains shown) VH: QVQLQESGPGLVKPSQTLSLTCTVSGYSITSHYNAHWIRQPPGKGLEWIGYIHYSGSTNYNPSLKSRVTISRDTSKNQFSLKLSSVTAADTAVYYCARNYGSIYVNYFDYWGQGTLVTVSS VL: EIVLTQSPATLSLSPGERATLSCSASSSVSYMYWYQQKPGQAPRPLIYRTSNLASGIPARFSGSGSGTDFTLTISSLEPEDFAVYYCQQYHSYPTFGGGTKVEIK	2.99
SA302a HC-D33R (antibody, V domains shown) VH: QVQLQESGPGLVKPSQTLSLTCTVSGYSITSRYNAHWIRQPPGKGLEWIGYIHYSGSTNYNPSLKSRVTISRDTSKNQFSLKLSSVTAADTAVYYCARNYGSIYVNYFDYWGQGTLVTVSS VL: EIVLTQSPATLSLSPGERATLSCSASSSVSYMYWYQQKPGQAPRPLIYRTSNLASGIPARFSGSGSGTDFTLTISSLEPEDFAVYYCQQYHSYPTFGGGTKVEIK	2.24
SA302a HC-Y33aD (antibody, V domains shown) VH: QVQLQESGPGLVKPSQTLSLTCTVSGYSITSDDNAHWIRQPPGKGLEWIGYIHYSGSTNYNPSLKSRVTISRDTSKNQFSLKLSSVTAADTAVYYCARNYGSIYVNYFDYWGQGTLVTVSS VL: EIVLTQSPATLSLSPGERATLSCSASSSVSYMYWYQQKPGQAPRPLIYRTSNLASGIPARFSGSGSGTDFTLTISSLEPEDFAVYYCQQYHSYPTFGGGTKVEIK	10.5
SA302a HC-Y33aL (antibody, V domains shown) VH: QVQLQESGPGLVKPSQTLSLTCTVSGYSITSDLNAHWIRQPPGKGLEWIGYIHYSGSTNYNPSLKSRVTISRDTSKNQFSLKLSSVTAADTAVYYCARNYGSIYVNYFDYWGQGTLVTVSS VL: EIVLTQSPATLSLSPGERATLSCSASSSVSYMYWYQQKPGQAPRPLIYRTSNLASGIPARFSGSGSGTDFTLTISSLEPEDFAVYYCQQYHSYPTFGGGTKVEIK	2.36
SA302a HC-Y33aR (antibody, V domains shown) VH: QVQLQESGPGLVKPSQTLSLTCTVSGYSITSDRNAHWIRQPPGKGLEWIGYIHYSGSTNYNPSLKSRVTISRDTSKNQFSLKLSSVTAADTAVYYCARNYGSIYVNYFDYWGQGTLVTVSS VL: EIVLTQSPATLSLSPGERATLSCSASSSVSYMYWYQQKPGQAPRPLIYRTSNLASGIPARFSGSGSGTDFTLTISSLEPEDFAVYYCQQYHSYPTFGGGTKVEIK	8.72
SA302a HC-Y33aH (antibody, V domains shown) VH: QVQLQESGPGLVKPSQTLSLTCTVSGYSITSDHNAHWIRQPPGKGLEWIGYIHYSGSTNYNPSLKSRVTISRDTSKNQFSLKLSSVTAADTAVYYCARNYGSIYVNYFDYWGQGTLVTVSS VL: EIVLTQSPATLSLSPGERATLSCSASSSVSYMYWYQQKPGQAPRPLIYRTSNLASGIPARFSGSGSGTDFTLTISSLEPEDFAVYYCQQYHSYPTFGGGTKVEIK	4.11
SA302a HC-Y33aV (antibody, V domains shown) VH: QVQLQESGPGLVKPSQTLSLTCTVSGYSITSDVNAHWIRQPPGKGLEWIGYIHYSGSTNYNPSLKSRVTISRDTSKNQFSLKLSSVTAADTAVYYCARNYGSIYVNYFDYWGQGTLVTVSS VL: EIVLTQSPATLSLSPGERATLSCSASSSVSYMYWYQQKPGQAPRPLIYRTSNLASGIPARFSGSGSGTDFTLTISSLEPEDFAVYYCQQYHSYPTFGGGTKVEIK	4.49
SA302a HC-Y33aS (antibody, V domains shown) VH: QVQLQESGPGLVKPSQTLSLTCTVSGYSITSDSNAHWIRQPPGKGLEWIGYIHYSGSTNYNPSLKSRVTISRDTSKNQFSLKLSSVTAADTAVYYCARNYGSIYVNYFDYWGQGTLVTVSS VL: EIVLTQSPATLSLSPGERATLSCSASSSVSYMYWYQQKPGQAPRPLIYRTSNLASGIPARFSGSGSGTDFTLTISSLEPEDFAVYYCQQYHSYPTFGGGTKVEIK	4.38
SA302a HC-Y33aN (antibody, V domains shown) VH: QVQLQESGPGLVKPSQTLSLTCTVSGYSITSDNNAHWIRQPPGKGLEWIGYIHYSGSTNYNPSLKSRVTISRDTSKNQFSLKLSSVTAADTAVYYCARNYGSIYVNYFDYWGQGTLVTVSS VL: EIVLTQSPATLSLSPGERATLSCSASSSVSYMYWYQQKPGQAPRPLIYRTSNLASGIPARFSGSGSGTDFTLTISSLEPEDFAVYYCQQYHSYPTFGGGTKVEIK	5.92
SA302a HC-Y33aM (antibody, V domains shown) VH: QVQLQESGPGLVKPSQTLSLTCTVSGYSITSDMNAHWIRQPPGKGLEWIGYIHYSGSTNYNPSLKSRVTISRDTSKNQFSLKLSSVTAADTAVYYCARNYGSIYVNYFDYWGQGTLVTVSS VL: EIVLTQSPATLSLSPGERATLSCSASSSVSYMYWYQQKPGQAPRPLIYRTSNLASGIPARFSGSGSGTDFTLTISSLEPEDFAVYYCQQYHSYPTFGGGTKVEIK	3.05
SA302a HC-Y33aE (antibody, V domains shown) VH: QVQLQESGPGLVKPSQTLSLTCTVSGYSITSDENAHWIRQPPGKGLEWIGYIHYSGSTNYNPSLKSRVTISRDTSKNQFSLKLSSVTAADTAVYYCARNYGSIYVNYFDYWGQGTLVTVSS VL: EIVLTQSPATLSLSPGERATLSCSASSSVSYMYWYQQKPGQAPRPLIYRTSNLASGIPARFSGSGSGTDFTLTISSLEPEDFAVYYCQQYHSYPTFGGGTKVEIK	8.65
SA302a HC-N33bF (antibody, V domains shown) VH: QVQLQESGPGLVKPSQTLSLTCTVSGYSITSDYFAHWIRQPPGKGLEWIGYIHYSGSTNYNPSLKSRVTISRDTSKNQFSLKLSSVTAADTAVYYCARNYGSIYVNYFDYWGQGTLVTVSS VL: EIVLTQSPATLSLSPGERATLSCSASSSVSYMYWYQQKPGQAPRPLIYRTSNLASGIPARFSGSGSGTDFTLTISSLEPEDFAVYYCQQYHSYPTFGGGTKVEIK	5.24
SA302a HC-N33bG (antibody, V domains shown) VH: QVQLQESGPGLVKPSQTLSLTCTVSGYSITSDYGAHWIRQPPGKGLEWIGYIHYSGSTNYNPSLKSRVTISRDTSKNQFSLKLSSVTAADTAVYYCARNYGSIYVNYFDYWGQGTLVTVSS VL: EIVLTQSPATLSLSPGERATLSCSASSSVSYMYWYQQKPGQAPRPLIYRTSNLASGIPARFSGSGSGTDFTLTISSLEPEDFAVYYCQQYHSYPTFGGGTKVEIK	2.21
SA302a HC-N33bY (antibody, V domains shown) VH: QVQLQESGPGLVKPSQTLSLTCTVSGYSITSDYYAHWIRQPPGKGLEWIGYIHYSGSTNYNPSLKSRVTISRDTSKNQFSLKLSSVTAADTAVYYCARNYGSIYVNYFDYWGQGTLVTVSS VL: EIVLTQSPATLSLSPGERATLSCSASSSVSYMYWYQQKPGQAPRPLIYRTSNLASGIPARFSGSGSGTDFTLTISSLEPEDFAVYYCQQYHSYPTFGGGTKVEIK	6.15
SA302a HC-N33bR (antibody, V domains shown) VH: QVQLQESGPGLVKPSQTLSLTCTVSGYSITSDYRAHWIRQPPGKGLEWIGYIHYSGSTNYNPSLKSRVTISRDTSKNQFSLKLSSVTAADTAVYYCARNYGSIYVNYFDYWGQGTLVTVSS VL: EIVLTQSPATLSLSPGERATLSCSASSSVSYMYWYQQKPGQAPRPLIYRTSNLASGIPARFSGSGSGTDFTLTISSLEPEDFAVYYCQQYHSYPTFGGGTKVEIK	2.23
SA302a HC-N33bD (antibody, V domains shown) VH: QVQLQESGPGLVKPSQTLSLTCTVSGYSITSDYDAHWIRQPPGKGLEWIGYIHYSGSTNYNPSLKSRVTISRDTSKNQFSLKLSSVTAADTAVYYCARNYGSIYVNYFDYWGQGTLVTVSS VL: EIVLTQSPATLSLSPGERATLSCSASSSVSYMYWYQQKPGQAPRPLIYRTSNLASGIPARFSGSGSGTDFTLTISSLEPEDFAVYYCQQYHSYPTFGGGTKVEIK	1.03
SA302a HC-N33bH (antibody, V domains shown) VH: QVQLQESGPGLVKPSQTLSLTCTVSGYSITSDYHAHWIRQPPGKGLEWIGYIHYSGSTNYNPSLKSRVTISRDTSKNQFSLKLSSVTAADTAVYYCARNYGSIYVNYFDYWGQGTLVTVSS VL: EIVLTQSPATLSLSPGERATLSCSASSSVSYMYWYQQKPGQAPRPLIYRTSNLASGIPARFSGSGSGTDFTLTISSLEPEDFAVYYCQQYHSYPTFGGGTKVEIK	2.91
SA302a HC-N33bV (antibody, V domains shown) VH: QVQLQESGPGLVKPSQTLSLTCTVSGYSITSDYVAHWIRQPPGKGLEWIGYIHYSGSTNYNPSLKSRVTISRDTSKNQFSLKLSSVTAADTAVYYCARNYGSIYVNYFDYWGQGTLVTVSS VL: EIVLTQSPATLSLSPGERATLSCSASSSVSYMYWYQQKPGQAPRPLIYRTSNLASGIPARFSGSGSGTDFTLTISSLEPEDFAVYYCQQYHSYPTFGGGTKVEIK	1.36
